# Reference: paper doi:10.1101/2020.12.31.425019 (bioRxiv, 2020)
# Assays:
# [1] = target: the molecule itself; assay: negative-stain EM
# [2] = target: the molecule itself; assay: cross-linking
protein,measurement,setting,value
"fPanx1ΔC (frog Pannexin 1 truncated at Lys357, residues 1-357) (domain or fragment, UniProt B3DLA5 1-357, looked up, glycosylated in insect cells (upper band sensitive to PNGaseF; site not stated)) MAIAHIATEYVFSDFLLKDPPESKYKGLRLELAVDKLVSCIAVGLPLLLISLAFAQEITLGSQISCFAPTSFSWRQAAYVDSFCWAAVQQKHLSQSDSGNVPLWLHKFFPYILLLVAVLLYLPNLFWRFTAAPHLSSDLKFVMEELDKCYNRDIKDIKAANNLNSSDKRDGLNSPVVSENLQQSLWEIPLSHYKYPIVEQYLKTKNNSYGLIIKYLICRVVTLIIVFTACIYLGYYISLFSLTDEFTCNIRTGILRNDTALPPLVQCKLIAVGVFRLLSYINLIIYVLIMPFIIYAMLVPFRKTANVLKVYEVLPTFSVQQAPSKTYDDHSLFLLFLEENVSELKSYKFLKVLENIK",stoichiometry N,[1],7
same,stoichiometry N,[2],~7
